These results are taken from patent publication US20060040855A1 (published 2006).

The experiment has as its target rat LH receptor (rat, UniProt P16235). Briefly: cell-based or functional assay.

B1: dgα5-β8 (dg-αQ5C/hCGβR8C) (ligand)
chain 1: not shown
chain 2: SKEPLRPCCRPINATLAVEKEGCPVCITVNTTICAGYCPTMTRVLQGVLPALPQVVCNYRDVRFESIRLPGCPRGVNPVVSYAVALSCQCALCRRSTTDCGGPKDHPLTCDDPRFQDSSSSKAPPPSLPSPSRLPGPSDTPILPQ
In the case of B1, the “Efficacy, cyclic AMP accumulation” value is 36%.

B2: dgα27-β44 (dg-αQ27C/hCGβV44C) (ligand)
chain 1: not shown
chain 2: SKEPLRPRCRPINATLAVEKEGCPVCITVNTTICAGYCPTMTRCLQGVLPALPQVVCNYRDVRFESIRLPGCPRGVNPVVSYAVALSCQCALCRRSTTDCGGPKDHPLTCDDPRFQDSSSSKAPPPSLPSPSRLPGPSDTPILPQ
Turning to B2, the “Efficacy, cyclic AMP accumulation” value was determined as 14%.

B3: dgα76-β44 (dg-αV76C/hCGβV44C) (ligand)
chain 1: not shown
chain 2: SKEPLRPRCRPINATLAVEKEGCPVCITVNTTICAGYCPTMTRCLQGVLPALPQVVCNYRDVRFESIRLPGCPRGVNPVVSYAVALSCQCALCRRSTTDCGGPKDHPLTCDDPRFQDSSSSKAPPPSLPSPSRLPGPSDTPILPQ
In the case of B3, the “Efficacy, cyclic AMP accumulation” value was determined as 34%.
